Source: publication PMC13028475

Target: FPM13 (Francisella Periplasmic Metalloprotein, 13 kDa), native protein of Francisella novicida (Francisella novicida)
Experiment: cryo-EM structure

Substance: FPM13 (Francisella Periplasmic Metalloprotein, 13 kDa), native protein of Francisella novicida (natural protein)
- stoichiometry N: 18
